# B1: U4/U6 small nuclear ribonucleoprotein Prp31 (Homo sapiens), Q8WWY3 (parent)
# chain: MSLADELLADLEEAAEEEEGGSYGEEEEEPAIEDVQEETQLDLSGDSVKTIAKLWDSKMFAEIMMKIEEYISKQAKASEVMGPVEAAPEYRVIVDANNLTVEIENELNIIHKFIRDKYSKRFPELESLVPNALDYIRTVKELGNSLDKCKNNENLQQILTNATIMVVSVTASTTQGQQLSEEELERLEEACDMALELNASKHRIYEYVESRMSFIAPNLSIIIGASTAAKIMGVAGGLTNLSKMPACNIMLLGAQRKTLSGFSSTSVLPHTGYIYHSDIVQSLPPDLRRKAARLVAAKCTLAARVDSFHESTEGKVGYELKDEIERKFDKWQEPPPVKQVKPLPAPLDGQRKKRGGRRYRKMKERLGLTEIRKQANRMSFGEIEEDAYQEDLGFSLGHLGKSGSGRVRQTQVNEATKARISKTLQRTLQKQSVVYGGKSTIRDRSSGTASSVAFTPLQGLEIVNPQAAEKKVAEANQKYFSSMAEFLKVKGEKSGLMST
# partner: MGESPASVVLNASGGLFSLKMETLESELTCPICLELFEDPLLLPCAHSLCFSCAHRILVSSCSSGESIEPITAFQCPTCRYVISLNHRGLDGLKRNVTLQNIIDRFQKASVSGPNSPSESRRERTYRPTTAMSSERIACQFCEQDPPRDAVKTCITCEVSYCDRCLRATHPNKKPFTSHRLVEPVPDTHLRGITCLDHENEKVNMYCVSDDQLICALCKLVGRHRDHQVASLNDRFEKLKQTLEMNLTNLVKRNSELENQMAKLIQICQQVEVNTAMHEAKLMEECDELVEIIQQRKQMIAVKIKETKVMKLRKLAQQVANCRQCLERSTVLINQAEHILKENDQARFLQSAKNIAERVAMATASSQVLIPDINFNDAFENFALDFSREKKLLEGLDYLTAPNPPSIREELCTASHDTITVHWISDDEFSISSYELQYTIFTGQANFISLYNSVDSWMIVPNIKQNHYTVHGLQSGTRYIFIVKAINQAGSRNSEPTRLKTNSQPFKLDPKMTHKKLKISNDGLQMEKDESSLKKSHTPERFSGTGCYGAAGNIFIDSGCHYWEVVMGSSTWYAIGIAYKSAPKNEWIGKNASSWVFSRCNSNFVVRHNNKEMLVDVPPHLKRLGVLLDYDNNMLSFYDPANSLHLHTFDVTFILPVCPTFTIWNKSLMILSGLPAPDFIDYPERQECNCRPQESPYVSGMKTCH
# B2: Neurogenin-3 (Homo sapiens), Q9Y4Z2 (parent)
# chain: MTPQPSGAPTVQVTRETERSFPRASEDEVTCPTSAPPSPTRTRGNCAEAEEGGCRGAPRKLRARRGGRSRPKSELALSKQRRSRRKKANDRERNRMHNLNSALDALRGVLPTFPDDAKLTKIETLRFAHNYIWALTQTLRIADHSLYALEPPAPHCGELGSPGGSPGDWGSLYSPVSQAGSLSPAASLEERPGLLGATFSACLSPGSLAFSDFL
# B3: Chorion-specific transcription factor GCMb (Homo sapiens), O75603 (parent)
# chain: MPAAAVQEAVGVCSYGMQLSWDINDPQMPQELALFDQFREWPDGYVRFIYSSDEKKAQRHLSGWAMRNTNNHNGHILKKSCLGVVVCTQACTLPDGSRLQLRPAICDKARLKQQKKACPNCHSALELIPCRGHSGYPVTNFWRLDGNAIFFQAKGVHDHPRPESKSETEARRSAIKRQMASFYQPQKKRIRESEAEENQDSSGHFSNIPPLENPEDFDIVTETSFPIPGQPCPSFPKSDVYKATCDLATFQGDKMPPFQKYSSPRIYLPRPPCSYELANPGYTNSSPYPTLYKDSTSIPNDTDWVHLNTLQCNVNSYSSYERSFDFTNKQHGWKPALGKPSLVERTNHGQFQAMATRPYYNPELPCRYLTTPPPGAPALQTVITTTTKVSYQAYQPPAMKYSDSVREVKSLSSCNYAPEDTGMSVYPEPWGPPVTVTRAASPSGPPPMKIAGDCRAIRPTVAIPHEPVSSRTDEAETWDVCLSGLGSAVSYSDRVGPFFTYNNEDF
# partner: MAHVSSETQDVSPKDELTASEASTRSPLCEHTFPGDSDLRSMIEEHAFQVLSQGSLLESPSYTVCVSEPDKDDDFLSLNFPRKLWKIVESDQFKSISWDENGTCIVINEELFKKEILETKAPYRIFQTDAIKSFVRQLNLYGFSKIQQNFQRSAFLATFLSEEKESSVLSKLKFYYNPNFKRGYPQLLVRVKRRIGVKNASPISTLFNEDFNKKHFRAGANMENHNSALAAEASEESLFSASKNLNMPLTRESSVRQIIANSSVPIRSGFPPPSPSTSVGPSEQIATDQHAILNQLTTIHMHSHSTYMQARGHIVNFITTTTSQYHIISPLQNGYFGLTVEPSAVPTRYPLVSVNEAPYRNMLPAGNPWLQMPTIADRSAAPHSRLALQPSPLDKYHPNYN
# B4: Carbonic anhydrase-related protein (Homo sapiens), P35219 (parent)
# chain: MADLSFIEDTVAFPEKEEDEEEEEEGVEWGYEEGVEWGLVFPDANGEYQSPINLNSREARYDPSLLDVRLSPNYVVCRDCEVTNDGHTIQVILKSKSVLSGGPLPQGHEFELYEVRFHWGRENQRGSEHTVNFKAFPMELHLIHWNSTLFGSIDEAVGKPHGIAIIALFVQIGKEHVGLKAVTEILQDIQYKGKSKTIPCFNPNTLLPDPLLRDYWVYEGSLTIPPCSEGVTWILFRYPLTISQLQIEEFRRLRTHVKGAELVEGCDGILGDNFRPTQPLSDRVIRAAFQ
# partner: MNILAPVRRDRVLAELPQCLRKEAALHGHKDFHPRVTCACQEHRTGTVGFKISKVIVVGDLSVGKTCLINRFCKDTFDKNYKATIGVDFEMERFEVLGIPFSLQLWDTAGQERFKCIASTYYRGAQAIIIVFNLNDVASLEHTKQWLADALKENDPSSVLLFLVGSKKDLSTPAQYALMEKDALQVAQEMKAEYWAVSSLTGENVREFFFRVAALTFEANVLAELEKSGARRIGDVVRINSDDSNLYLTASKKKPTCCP
# B5: U4/U6 small nuclear ribonucleoprotein Prp31 (Homo sapiens), Q8WWY3 (parent)
# chain: B1 chain
# partner: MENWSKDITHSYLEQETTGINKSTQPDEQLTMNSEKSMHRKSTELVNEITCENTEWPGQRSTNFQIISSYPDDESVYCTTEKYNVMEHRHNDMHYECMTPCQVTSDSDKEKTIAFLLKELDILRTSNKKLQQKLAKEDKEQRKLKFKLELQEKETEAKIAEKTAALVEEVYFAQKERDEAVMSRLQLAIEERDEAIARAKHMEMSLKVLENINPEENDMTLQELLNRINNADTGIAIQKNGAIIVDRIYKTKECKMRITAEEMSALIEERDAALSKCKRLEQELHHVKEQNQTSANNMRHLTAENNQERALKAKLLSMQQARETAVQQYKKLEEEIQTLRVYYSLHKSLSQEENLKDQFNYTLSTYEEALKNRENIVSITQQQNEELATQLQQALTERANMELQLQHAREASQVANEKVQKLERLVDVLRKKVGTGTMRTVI
# B6: TERF1-interacting nuclear factor 2 (Homo sapiens), Q9BSI4 (parent)
# chain: MATPLVAGPAALRFAAAASWQVVRGRCVEHFPRVLEFLRSLRAVAPGLVRYRHHERLCMGLKAKVVVELILQGRPWAQVLKALNHHFPESGPIVRDPKATKQDLRKILEAQETFYQQVKQLSEAPVDLASKLQELEQEYGEPFLAAMEKLLFEYLCQLEKALPTPQAQQLQDVLSWMQPGVSITSSLAWRQYGVDMGWLLPECSVTDSVNLAEPMEQNPPQQQRLALHNPLPKAKPGTHLPQGPSSRTHPEPLAGRHFNLAPLGRRRVQSQWASTRGGHKERPTVMLFPFRNLGSPTQVISKPESKEEHAIYTADLAMGTRAASTGKSKSPCQTLGGRALKENPVDLPATEQKENCLDCYMDPLRLSLLPPRARKPVCPPSLCSSVITIGDLVLDSDEEENGQGEGKESLENYQKTKFDTLIPTLCEYLPPSGHGAIPVSSCDCRDSSRPL
# Variants of: B1
# Details: with MID2, Q9UJV3-2
row,Variant,effect of a mutation on the interaction
1,L107V,with no effect

# Variants of: B2
# Details: with TCF12, Q99081-3
# Chain of TCF12, Q99081-3 (Q99081 other isoform, or with tags, fused parts or gaps): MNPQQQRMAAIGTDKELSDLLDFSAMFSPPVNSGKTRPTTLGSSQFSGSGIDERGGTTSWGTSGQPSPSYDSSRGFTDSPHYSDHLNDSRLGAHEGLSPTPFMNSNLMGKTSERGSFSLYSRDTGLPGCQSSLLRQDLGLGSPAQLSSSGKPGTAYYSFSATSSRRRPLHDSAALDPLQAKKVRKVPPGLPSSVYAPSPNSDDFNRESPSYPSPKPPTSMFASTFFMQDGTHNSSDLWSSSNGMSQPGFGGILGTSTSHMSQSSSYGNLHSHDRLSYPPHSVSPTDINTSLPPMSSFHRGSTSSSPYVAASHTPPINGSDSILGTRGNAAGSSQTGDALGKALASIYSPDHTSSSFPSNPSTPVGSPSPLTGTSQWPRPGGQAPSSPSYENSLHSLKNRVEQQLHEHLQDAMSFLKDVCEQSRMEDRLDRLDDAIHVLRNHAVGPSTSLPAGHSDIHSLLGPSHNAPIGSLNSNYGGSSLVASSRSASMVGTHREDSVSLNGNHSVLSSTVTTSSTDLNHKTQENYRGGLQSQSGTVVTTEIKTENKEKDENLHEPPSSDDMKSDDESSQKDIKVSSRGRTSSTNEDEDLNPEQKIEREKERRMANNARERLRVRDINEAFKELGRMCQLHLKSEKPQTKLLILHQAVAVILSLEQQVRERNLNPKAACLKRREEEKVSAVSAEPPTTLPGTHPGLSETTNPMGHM
row,Variant,effect of a mutation on the interaction
1,G167R,disrupting interaction strength
2,F199S,disrupting interaction strength

# Variants of: B3
# Details: with hsfy1_human HSFY1, Q96LI6
row,Variant,effect of a mutation on the interaction
1,R47L,disrupting interaction strength
2,G63S,disrupting interaction strength
3,G203S,with no effect

# Variants of: B4
# Details: with rab34_human RAB34, Q9BZG1
row,Variant,effect of a mutation on the interaction
1,S100P,disrupting interaction strength

# Variants of: B5
# Details: with mipo1_human MIPOL1, Q8TD10
row,Variant,effect of a mutation on the interaction
1,L107V,with no effect

# Variants of: B6
# Details: with acd_human ACD
row,Variant,effect of a mutation on the interaction
1,S245Y,with no effect
2,G237D,with no effect
3,P236S,disrupting interaction strength

# From IntAct's records for PubMed 25910212
